Measurements: article PMC4499152 (Nucleic Acids Research, 2015)

Key:
Experiment in all cases: pull-down
[1] = molecular target: GST fusion with the C-terminal DNA-PKcs fragment H (a.a. 3747-4128) (human, UniProt P78527 3747-4128)
[2] = molecular target: GST fusion with DNA-PKcs fragment H2 (a.a. 3747-4097) (human, UniProt P78527 3747-4097)
[3] = molecular target: hnRNP-A1 N-terminal RRMs fragment (a.a. 1-188) (UniProt P09651-2 1-188)

Sequence of GST fusion with DNA-PKcs fragment H2 (a.a. 3747-4097) (P78527 3747-4097): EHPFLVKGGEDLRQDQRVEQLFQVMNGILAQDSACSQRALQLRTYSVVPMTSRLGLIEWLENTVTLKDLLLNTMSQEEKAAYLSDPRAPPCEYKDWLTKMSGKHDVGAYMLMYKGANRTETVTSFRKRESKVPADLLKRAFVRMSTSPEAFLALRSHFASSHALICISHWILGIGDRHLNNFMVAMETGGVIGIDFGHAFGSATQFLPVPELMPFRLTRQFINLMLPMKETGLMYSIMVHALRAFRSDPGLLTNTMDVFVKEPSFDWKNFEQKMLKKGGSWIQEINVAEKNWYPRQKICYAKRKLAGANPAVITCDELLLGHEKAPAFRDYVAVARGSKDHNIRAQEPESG

B1: His-tagged full-length hnRNP-A1 (recombinant, wild type) (natural protein, UniProt P09651-2 1-320, looked up)
chain: MSKSESPKEPEQLRKLFIGGLSFETTDESLRSHFEQWGTLTDCVVMRDPNTKRSRGFGFVTYATVEEVDAAMNARPHKVDGRVVEPKRAVSREDSQRPGAHLTVKKIFVGGIKEDTEEHHLRDYFEQYGKIEVIEIMTDRGSGKKRGFAFVTFDDHDSVDKIVIQKYHTVNGHNCEVRKALSKQEMASASSSQRGRSGSGNFGGGRGGGFGGNDNFGRGGNFSGRGGFGGSRGGGGYGGSGDGYNGFGNDGSNFGGGGSYNDFGNYNNQSSNFGPMKGGNFGGRSSGPYGGGGQYFAKPRNQGGYGGSSSSSSYGSGRRF
- binding result [1]: binds
- binding result [2]: binds

B2: GST fusion with DNA-PKcs fragment H3 (a.a. 4036-4128) (domain or fragment, human, UniProt P78527 4036-4128, looked up)
chain: KNWYPRQKICYAKRKLAGANPAVITCDELLLGHEKAPAFRDYVAVARGSKDHNIRAQEPESGLSEETQVKCLMDQATDPNILGRTWEGWEPWM
- binding result [3]: binds
